Results taken from paper PMC4726326, “The Arabidopsis glutamyl-tRNA reductase (GluTR) forms a ternary complex with FLU and GluTR-binding protein” (Scientific Reports, 2016).

B1: C-terminal tetratricopeptide-repeat domain of Arabidopsis FLUORESCENT (FLU), residues 195-316 (domain or fragment, Arabidopsis thaliana, UniProt Q940U6 195-316, looked up)
chain: IVEPKKQELISKLKTGKTFLRNQEPEKAYTEFKIALELAQSLKDPTEEKKAARGLGASLQRQGKYREAIQYHSMVLAISKRESEDSGITEAYGAIADCYTELGDLEKAGKFYDTYIARLETD
notes: FLUORESCENT (FLU), Arabidopsis thaliana, At3g14110, truncation of residues 195-316 (TPR domain); Expression vector pET-22b(+); also called FLU^TPR; the recombinant TPR domain of FLU
B2: Arabidopsis glutamyl-tRNA reductase (GluTR), residues 73-543 (enzyme, Arabidopsis thaliana, UniProt P42804 73-543, looked up)
chain: AASISALEQLKNSAADRYTKERSSIVVIGLSIHTAPVEMREKLAIPEAEWPRAIAELCGLNHIEEAAVLSTCNRMEIYVLALSQHRGVKEVTEWMSKTSGIPVSEICQHRFLLYNKDATQHIFEVSAGLDSLVLGEGQILAQVKQVVKVGQGVNGFGRNISGLFKHAITVGKRVRTETNIASGAVSVSSAAVELALMKLPQSSNVSARMCVIGAGKMGKLVIKHLMAKGCTKVVVVNRSEERVSAIREEMPGIEIIYRPLDEMLACASEADVVFTSTASETPLFLKEHVENLPQASPEVGGLRHFVDISVPRNVGSCVGEVETARVYNVDDLKEVVAANKEDRMRKAMEAQTIITEESTQFEAWRDSLETVPTIKKLRAYAERIRVAELEKCMSKMGDDINKKTTRAVDDLSRGIVNRFLHGPMQHLRCDGSDSRTLSETLENMHALNRMYGLEKDILEEKLKAMAEQQQK
notes: Expression vector pMAL-c5X; GluTR dimer fractions were collected from the gel filtration
B3: Arabidopsis GluTR-binding protein (GBP), residues 42-317 (natural protein, Arabidopsis thaliana, UniProt Q9LU39 42-317, looked up)
chain: CSVSTTLDTPATASTHKPFPAEVSRSIMELSSVGTLSTLTHDGWPLGVGVRFAVDKDGTPVLCLNRSVSPDKRSALHVQLEQCGLRTPQCTIQGSIGRPGDDTVLKRLSATWREKFGEEVKEDSLYVVAVDRVLQMEDFMEDGIWVASSDYKNASPDPLRDIAEDIVNQINANNMEDIFRFCNVYVDLDFVVSETKMIWMDRLGFDLRVWSPRGVYDVRIPFPMEVTDEKGAKSSFNGMSQLAWEVEKSYCPADFNKVKLLKQVVGSSHSHKGGGQ
notes: Expression vector pET-28a(+)

Legend:
[1] = target: the molecule itself; experiment: crystal structure; FLU^TPR-GluTR-GBP ternary complex, space group C2, 3.2 Å, PDB 5CHE; sitting drop, 16 °C
[2] = target: B2; experiment: SEC; purified GluTR, GBP and FLU^TPR mixed at molar ratio 2:3:3, 1 hour at 4 °C; HiLoad 16/60 Superdex 200 pg; 20 mM Tris-HCl pH 7.5, 200 mM NaCl, 4 mM dithiothreitol; conditions: both partners purified
[3] = target: B2; experiment: ITC; MicroCal iTC200, 25 °C; 20 mM Tris-HCl pH 7.5, 150 mM NaCl; 20 injections of 2 μl of 0.5 mM protein into 200 μl of 50 μM protein; one-site binding model; apparent Kd; conditions: both partners purified

Row | Kd [3] | Binder | binding result [1] | binding result [2] | stoichiometry N [1]
1 | – | B1 | binds | binds | –
2 | – | B2 | – | – | 2
3 | 41.3 ± 3.7 nM | B3 | binds | – | –
